From the supplement of paper PMC5998384

Legend:
[1] = tested on: HeLa Kyoto; experiment: solubility in G1/S (NP-40 vs SDS abundance) (log2 ratio); higher = more soluble; conditions: cell cycle stage: G1/S
[2] = tested on: HeLa Kyoto; experiment: solubility change mitosis vs G1/S (difference of NP-40 vs SDS log2 ratios) (log2 ratio difference); higher = more soluble in mitosis
[3] = tested on: HeLa Kyoto; experiment: thermal stability score vs G1/S (z-score of summed log2 fold changes over temperatures); higher = more thermally stable than in G1/S
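Throughout, for solubility change mitosis vs G1/S (difference of NP-40 vs SDS log2 ratios): synchronized HeLa Kyoto cells (double thymidine block for G1/S, nocodazole release for mitosis), protein amounts in NP-40 versus SDS lysates quantified by mass spectrometry, three biological replicates.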
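Throughout, for solubility in G1/S (NP-40 vs SDS abundance): HeLa Kyoto cells arrested at G1/S by double thymidine block, proteins quantified by TMT10plex mass spectrometry in mild NP-40 versus SDS extracts, three biological replicates.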
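Throughout, for thermal stability score vs G1/S (z-score of summed log2 fold changes over temperatures): synchronized HeLa Kyoto cells, proteins quantified by TMT10plex mass spectrometry, three biological replicates, mitosis taken 0.5 h after nocodazole release, G1/S directly after double thymidine block.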

Substance | solubility change mitosis (log2) [2] | also measured
MEDGVLKEGFLVKRGHIVHNWKARWFILRQNTLVYYKLEGGRRVTPPKGRILLDGCTITCPCLEYENRPLLIKLKTQTSTEYFLEACSREERDAWAFEITGAIHAGQPGKVQQLHSLRNSFKLPPHISLHRIVDKMHDSNTGIRSSPNMEQGSTYKKTFLGSSLVDWLISNSFTASRLEAVTLASMLMEENFLRPVGVRSMGAIRSGDLAEQFLDDSTALYTFAESYKKKISPKEEISLSTVELSGTVVKQGYLAKQGHKRKNWKVRRFVLRKDPAFLHYYDPSKEENRPVGGFSLRGSLVSALEDNGVPTGVKGNVQGNLFKVITKDDTHYYIQASSKAERAEWIEAIKKLT [PLEK2] | -0.0462 | solubility in G1/S (log2) [1]: -0.00783
MDWKEVLRRRLATPNTCPNKKKSEQELKDEEMDLFTKYYSEWKGGRKNTNEFYKTIPRFYYRLPAEDEVLLQKLREESRAVFLQRKSRELLDNEELQNLWFLLDKHQTPPMIGEEAMINYENFLKVGEKAGAKCKQFFTAKVFAKLLHTDSYGRISIMQFFNYVMRKVWLHQTRIGLSLYDVAGQGYLRESDLENYILELIPTLPQLDGLEKSFYSFYVCTAVRKFFFFLDPLRTGKIKIQDILACSFLDDLLELRDEELSKESQETNWFSAPSALRVYGQYLNLDKDHNGMLSKEELSRYGTATMTNVFLDRVFQECLTYDGEMDYKTYLDFVLALENRKEPAALQYIFKLLDIENKGYLNVFSLNYFFRAIQELMKIHGQDPVSFQDVKDEIFDMVKPKDPLKISLQDLINSNQGDTVTTILIDLNGFWTYENREALVANDSENSADLDDT [C14ORF10] | -0.0757 | solubility in G1/S (log2) [1]: -0.0201
MRPS2 | 0.0234 | –
IWS1 | 0.062 | –
RPL18A | 0.618 | –
MGGSGSRLSKELLAEYQDLTFLTKQEILLAHRRFCELLPQEQRSVESSLRAQVPFEQILSLPELKANPFKERICRVFSTSPAKDSLSFEDFLDLLSVFSDTATPDIKSHYAFRIFDFDDDGTLNREDLSRLVNCLTGEGEDTRLSASEMKQLIDNILEESDIDRDGTINLSEFQHVISRSPDFASSFKIVL [CIB1] | -0.0256 | –
RNF167 | -0.0145 | –
RPL17 | 0.699 | –
CLIC1 | 0.0655 | –
ATP1A1 | -0.0968 | –
MRPL17 | -0.0699 | –
MRPL44 | -0.0742 | –
MSALEKSMHLGRLPSRPPLPGSGGSQSGAKMRMGPGRKRDFSPVPWSQYFESMEDVEVENETGKDTFRVYKSGSEGPVLLLLHGGGHSALSWAVFTAAIISRVQCRIVALDLRSHGETKVKNPEDLSAETMAKDVGNVVEAMYGDLPPPIMLIGHSMGGAIAVHTASSNLVPSLLGLCMIDVVEGTAMDALNSMQNFLRGRPKTFKSLENAIEWSVKSGQIRNLESARVSMVGQVKQCEGITSPEGSKSIVEGIIEEEEEDEEGSESISKRKKEDDMETKKDHPYTWRIELAKTEKYWDGWFRGLSNLFLSCPIPKLLLLAGVDRLDKDLTIGQMQGKFQMQVLPQCGHAVHEDAPDKVAEAVATFLIRHRFAEPIGGFQCVFPGC [PPME1] | 0.0133 | thermal stability score ([3]; cell cycle stage: early G1 (4.5 h after nocodazole release)): -0.13; thermal stability score ([3]; cell cycle stage: mitosis): -0.609
RPL28 | 0.852 | –
ACTR2 | -0.105 | –
PACSIN3 | 0.0183 | –
PEX5 | -0.137 | –
PAF1 | -0.0983 | –
MRPL42 | 0.296 | –
SUPT5H | -0.0755 | –
RPS26 | 0.618 | –
PRG4 | 0.251 | –

Substance | solubility change mitosis (log2) [2] | also measured
RPS20 | 0.612 | –
RPL10A | 0.596 | –
MRPS12 | 0.0958 | –
GTPBP4 | 0.746 | –
MRTO4 | 0.303 | –
ITPA | 0.0757 | –
RPSA | 0.449 | –
RTF1 | 0.0675 | –
AKR1B1 | -0.0682 | –
KDM1A | -0.0676 | –
MRPL16 | 0.059 | –
RPS24 | 0.772 | –
RPS17 | 0.529 | –
HAGH | 0.0733 | –
DLG1 | -0.0806 | –
YTHDC1 | -0.0521 | –
TMEM245 | 0.113 | –
RPL26 | 0.817 | –
RPL37A | 0.616 | –
POFUT1 | -0.148 | –
MRPL50 | 0.178 | –
